The record followed here is article PMC2680334, “Polo-Like Kinase 1 Directs Assembly of the HsCyk-4 RhoGAP/Ect2 RhoGEF Complex to Initiate Cleavage Furrow Formation” (PLoS Biology, 2009).

The chains are these.
B2: Ect2-BRCT (1–421), soluble, CBD removed by TEV (domain or fragment, UniProt Q9H8V3-4 1-421, looked up)
chain: MAENSVLTSTTGRTSLADSSIFDSKVTEISKENLLIGSTSYVEEEMPQIETRVILVQEAGKQEELIKALKDIKVGFVKMESVEEFEGLDSPEFENVFVVTDFQDSVFNDLYKADCRVIGPPVVLNCSQKGEPLPFSCRPLYCTSMMNLVLCFTGFRKKEELVRLVTLVHHMGGVIRKDFNSKVTHLVANCTQGEKFRVAVSLGTPIMKPEWIYKAWERRNEQDFYAAVDDFRNEFKVPPFQDCILSFLGFSDEEKTNMEEMTEMQGGKYLPLGDERCTHLVVEENIVKDLPFEPSKKLYVVKQEWFWGSIQMDARAGETMYLYEKANTPELKKSVSMLSLNTPNSNRKRRRLKETLAQLSRETDVSPFPPRKRPSAEHSLSIGSLLDISNTPESSINYGDTPKSCTKSSKSSTPVPSKQSA
notes: Ect2 N terminus with the BRCT repeats, residues 1–421; the printed UniProt entry is the human protein; also called soluble Ect2-BRCT; source: E. coli BL21 (DE3) RIL, purified on chitin beads, eluted by TEV cleavage

The target in test [1] is Ect2 Ect2-BRCT, 1-421 (UniProt Q9H8V3). The experiment in a line: CBD bead pull-down, Coomassie. To be noted: reference: 4A without Plk1.
For test [2] the target is unchanged. Nature of the test: CBD bead pull-down, Coomassie or blot. To be noted: reference: HsCyk-4-Nt without Plk1; sites S149,S157,S164,S170.
Test [3] addresses B2. The experiment in a line: pull-down; 100 nM CBD fusion on chitin beads, with or without 50 nM Plk1-T210D 1–306 and ATP (60 min, 30°C), washed; soluble partner added at equimolar amounts; 20 mM HEPES pH 7.2, 150 mM NaCl, 5 mM MgCl2, 1 mM DTT, 0.1% Triton X-100; 90 min at 4°C; Coomassie staining or Western blot. To be noted: both partners purified.
The target of test [4] is T1, CBD–HsCyk-4-Nt-4D (1–288), incubated with Plk1, immobilised (UniProt Q9H0H5 1-288, Ser149 to Asp | Ser157 to Asp | Ser164 to Asp | Ser170 to Asp, incubated with Plk1-T210D (1–306) and ATP; remaining phosphorylation sites not stated).
T1 construct: HsCyk-4/MgcRacGAP N terminus, residues 1–288, four serines changed to aspartate; also called HsCyk-4-4D (with Plk1); source: E. coli BL21 (DE3) RIL, purified on chitin beads, incubated on the beads with Plk1-T210D 1–306 and ATP
T1 sequence (looked up): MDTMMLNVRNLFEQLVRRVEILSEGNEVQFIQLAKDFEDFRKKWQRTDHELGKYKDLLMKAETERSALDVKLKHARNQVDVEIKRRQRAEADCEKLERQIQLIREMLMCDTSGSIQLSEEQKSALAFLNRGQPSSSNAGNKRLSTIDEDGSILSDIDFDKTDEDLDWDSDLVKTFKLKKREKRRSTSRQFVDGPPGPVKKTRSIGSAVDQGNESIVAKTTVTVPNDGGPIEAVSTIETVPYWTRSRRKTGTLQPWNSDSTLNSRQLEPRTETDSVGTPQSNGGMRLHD
The test is described as above. To be noted: both partners purified.

In test [5] the target is T2, CBD–HsCyk-4-Nt (1–288) phosphorylated by Plk1, immobilised (UniProt Q9H0H5 1-288, phosphorylated in vitro by Plk1-T210D (1–306); Ser149, Ser157, Ser164 and Ser170 named as the sites).
T2 construct: HsCyk-4/MgcRacGAP N terminus, residues 1–288; the printed UniProt entry is the human protein; also called HsCyk-4-wt (with Plk1); source: E. coli BL21 (DE3) RIL, purified on chitin beads, phosphorylated on the beads with Plk1-T210D 1–306
T2 sequence (looked up): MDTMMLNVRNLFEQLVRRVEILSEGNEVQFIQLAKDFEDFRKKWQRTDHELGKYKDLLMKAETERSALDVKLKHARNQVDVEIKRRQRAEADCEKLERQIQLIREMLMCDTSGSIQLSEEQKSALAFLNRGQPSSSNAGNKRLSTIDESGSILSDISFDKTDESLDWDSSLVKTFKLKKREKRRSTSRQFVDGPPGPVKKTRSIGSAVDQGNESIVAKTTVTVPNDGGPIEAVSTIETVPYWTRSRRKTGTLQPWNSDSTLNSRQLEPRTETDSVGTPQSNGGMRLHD
The description is as above. To be noted: both partners purified.

Test [6] deals with T3, CBD–HsCyk-4-Nt-4A (1–288), incubated with Plk1, immobilised (UniProt Q9H0H5 1-288, Ser149 to Ala | Ser157 to Ala | Ser164 to Ala | Ser170 to Ala, incubated with Plk1-T210D (1–306) and ATP; remaining phosphorylation sites not stated).
T3 construct: HsCyk-4/MgcRacGAP N terminus, residues 1–288, four serines changed to alanine; also called HsCyk-4-4A; source: E. coli BL21 (DE3) RIL, purified on chitin beads, incubated on the beads with Plk1-T210D 1–306 and ATP
T3 sequence (looked up): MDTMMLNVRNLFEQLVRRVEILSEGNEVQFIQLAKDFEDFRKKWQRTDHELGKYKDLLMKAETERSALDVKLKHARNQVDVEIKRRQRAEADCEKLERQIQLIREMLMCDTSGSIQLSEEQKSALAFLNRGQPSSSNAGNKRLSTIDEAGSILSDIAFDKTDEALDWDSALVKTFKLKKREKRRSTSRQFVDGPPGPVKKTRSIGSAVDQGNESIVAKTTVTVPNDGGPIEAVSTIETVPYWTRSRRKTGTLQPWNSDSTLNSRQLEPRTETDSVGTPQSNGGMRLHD
The description is as above. The following applies: both partners purified.

In turn, “HsCyk-4/MgcRacGAP HsCyk-4-Nt, 1-288 (from UniProt Q9H0H5) 4A treated with Plk1 and ATP” had a fold change in test [1] of 3.1 fold. For the molecule “HsCyk-4/MgcRacGAP HsCyk-4-Nt, 1-288 (from UniProt Q9H0H5) HsCyk-4-Nt treated with Plk1-T210D kinase domain and ATP”, in test [2], the fold change was 20.2 fold.

B1: CBD–HsCyk-4-Nt-4D (1–288), not incubated with Plk1, immobilised (domain or fragment, UniProt Q9H0H5 1-288, looked up)
chain: MDTMMLNVRNLFEQLVRRVEILSEGNEVQFIQLAKDFEDFRKKWQRTDHELGKYKDLLMKAETERSALDVKLKHARNQVDVEIKRRQRAEADCEKLERQIQLIREMLMCDTSGSIQLSEEQKSALAFLNRGQPSSSNAGNKRLSTIDEDGSILSDIDFDKTDEDLDWDSDLVKTFKLKKREKRRSTSRQFVDGPPGPVKKTRSIGSAVDQGNESIVAKTTVTVPNDGGPIEAVSTIETVPYWTRSRRKTGTLQPWNSDSTLNSRQLEPRTETDSVGTPQSNGGMRLHD
notes: HsCyk-4/MgcRacGAP N terminus, residues 1–288, four serines changed to aspartate; also called HsCyk-4-4D; source: E. coli BL21 (DE3) RIL, purified on chitin beads, kept on the beads
For the molecule B1, the binding result in test [3] is “binds”. As for B2, the “fold stimulation of binding upon Plk1 phosphorylation (against the protein without Plk1)” value turned out to be 1.7 fold in test [4], 20.2 fold in test [5] and 3.1 fold in test [6].
